Measurements reported in US20110008345A1 (GlaxoSmithKline, published 2011).
Residue numbers refer to the chain shown, from its start. Blank lines part the entries; values can stand above or below the binder they belong to.

Key:
[1] = molecular target: T1, recombinant E. coli-expressed human IL-4 (human, UniProt P05112 25-153); assay: ELISA, IL-4 binding to IL4Ralpha-Fc
T1 construct: made and purified at GSK; also called Interleukin-4; rhIL-4
T1 sequence: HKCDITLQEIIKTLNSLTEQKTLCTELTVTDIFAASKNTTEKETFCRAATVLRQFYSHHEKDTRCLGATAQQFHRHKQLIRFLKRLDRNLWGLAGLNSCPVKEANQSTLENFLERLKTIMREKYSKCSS

[2] = molecular target: T2, recombinant E. coli-expressed human IL-13 (human, UniProt P35225 35-146); assay: SPR exp 3
T2 construct: made and purified at GSK; also called Interleukin-13; rhIL-13

[3] = molecular target: T3, recombinant E. coli-expressed cynomolgus IL-4 (cynomolgus, UniProt P79339 25-153); assay: SPR
T3 construct: also called cyno IL-4
T3 sequence (looked up): T1 sequence with E26K, V29I, F33L

[4] = molecular target: T4, recombinant E. coli-expressed cynomolgus IL-13 (cynomolgus, UniProt Q0PW92 21-132); assay: SPR
T4 construct: also called cyno IL-13

[5] = molecular target: T2, recombinant E. coli-expressed human …; assay: SPR
[6] = molecular target: T5, recombinant human IGF-1R-his tag (human, UniProt P08069 31-932); assay: ELISA
T5 construct: bought; also called rhIGF-1R

recombinant human VEGF = molecular target: T6, recombinant human VEGF (human, UniProt P15692-4 27-191); assay: ELISA
T6 construct: also called VEGF165; hVEGF165

[7] = molecular target: T1, recombinant E. coli-expressed human IL-4; assay: SPR exp 1
[8] = molecular target: T1, recombinant E. coli-expressed human IL-4; assay: SPR
[9] = molecular target: T1, recombinant E. coli-expressed human IL-4; assay: SPR exp 1; remark: listed apart in the source
[10] = molecular target: T1, recombinant E. coli-expressed human IL-4; assay: SPR exp 2
[11] = molecular target: T1, recombinant E. coli-expressed human IL-4; assay: cell-based or functional assay
[12] = molecular target: T1, recombinant E. coli-expressed human IL-4; assay: SPR; remark: listed apart in the source
[13] = molecular target: T1, recombinant E. coli-expressed human IL-4; assay: SPR exp 2; remark: listed apart in the source
[14] = molecular target: T1, recombinant E. coli-expressed human IL-4; assay: SPR exp 2; remark: listed apart in the source
[15] = molecular target: T1, recombinant E. coli-expressed human IL-4; assay: SPR exp 3
[16] = molecular target: T1, recombinant E. coli-expressed human IL-4; assay: SPR, purified
[17] = molecular target: T1, recombinant E. coli-expressed human IL-4; assay: SPR exp 1; remark: listed apart in the source
[18] = molecular target: T1, recombinant E. coli-expressed human IL-4; assay: SPR; remark: listed apart in the source
[19] = molecular target: T2, recombinant E. coli-expressed human …; assay: SPR; remark: listed apart in the source
[20] = molecular target: T1, recombinant E. coli-expressed human IL-4; assay: SPR, purified; remark: listed apart in the source
[21] = molecular target: T1, recombinant E. coli-expressed human IL-4; assay: SPR; remark: listed apart in the source
[22] = molecular target: T1, recombinant E. coli-expressed human IL-4; assay: SPR stoichiometry
[23] = molecular target: T1, recombinant E. coli-expressed human IL-4; assay: cell-based or functional assay; remark: listed apart in the source
[24] = molecular target: T3, recombinant E. coli-expressed …; assay: cell-based or functional assay
[25] = molecular target: T7, Recombinant Human HGF R (c-MET)/Fc Chimera (human, UniProt P08581 25-932); assay: ELISA
T7 construct: bought; also called HGF receptor
T7 sequence (P08581 25-932 limits assumed, change not shown): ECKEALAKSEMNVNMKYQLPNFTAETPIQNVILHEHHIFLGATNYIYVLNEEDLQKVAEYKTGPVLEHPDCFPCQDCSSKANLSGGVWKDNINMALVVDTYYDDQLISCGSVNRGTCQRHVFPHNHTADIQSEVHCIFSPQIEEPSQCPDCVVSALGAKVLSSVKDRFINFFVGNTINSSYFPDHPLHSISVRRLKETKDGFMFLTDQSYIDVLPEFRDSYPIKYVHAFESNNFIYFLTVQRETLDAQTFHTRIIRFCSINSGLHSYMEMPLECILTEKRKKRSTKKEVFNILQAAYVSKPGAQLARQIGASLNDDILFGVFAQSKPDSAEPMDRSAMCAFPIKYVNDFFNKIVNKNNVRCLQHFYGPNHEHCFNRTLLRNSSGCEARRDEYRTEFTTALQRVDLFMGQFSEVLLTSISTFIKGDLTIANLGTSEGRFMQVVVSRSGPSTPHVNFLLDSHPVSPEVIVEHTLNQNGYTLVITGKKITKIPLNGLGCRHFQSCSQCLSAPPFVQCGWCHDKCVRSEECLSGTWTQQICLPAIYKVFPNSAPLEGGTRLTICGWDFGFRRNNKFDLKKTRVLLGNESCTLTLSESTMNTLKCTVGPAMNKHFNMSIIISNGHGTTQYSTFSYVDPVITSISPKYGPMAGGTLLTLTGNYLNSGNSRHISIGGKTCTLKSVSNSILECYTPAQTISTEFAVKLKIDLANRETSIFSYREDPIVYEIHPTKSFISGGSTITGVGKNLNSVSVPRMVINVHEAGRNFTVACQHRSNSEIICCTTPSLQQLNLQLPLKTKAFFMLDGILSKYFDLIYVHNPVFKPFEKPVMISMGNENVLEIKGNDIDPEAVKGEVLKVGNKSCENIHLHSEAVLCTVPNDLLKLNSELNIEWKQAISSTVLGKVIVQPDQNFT

recombinant human IL-12 = molecular target: T8, recombinant human IL-12 (human, UniProt P29459 23-219; P29460 23-328); assay: ELISA
T8 sequence (looked up) 1: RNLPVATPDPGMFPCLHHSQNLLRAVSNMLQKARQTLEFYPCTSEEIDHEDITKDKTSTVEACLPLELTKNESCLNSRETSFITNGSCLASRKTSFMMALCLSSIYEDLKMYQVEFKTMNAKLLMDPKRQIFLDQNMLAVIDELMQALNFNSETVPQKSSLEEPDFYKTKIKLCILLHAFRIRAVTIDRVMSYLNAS
T8 sequence (looked up) 2: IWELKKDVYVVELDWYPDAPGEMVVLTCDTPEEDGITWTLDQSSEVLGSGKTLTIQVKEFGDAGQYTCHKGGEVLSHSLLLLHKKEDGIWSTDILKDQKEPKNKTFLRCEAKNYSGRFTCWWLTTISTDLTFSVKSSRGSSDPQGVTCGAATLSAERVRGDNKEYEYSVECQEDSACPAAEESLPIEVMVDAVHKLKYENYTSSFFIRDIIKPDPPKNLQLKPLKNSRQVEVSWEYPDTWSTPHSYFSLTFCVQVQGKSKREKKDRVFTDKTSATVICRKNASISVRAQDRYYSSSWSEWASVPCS

RNAse A = molecular target: T9, RNAse A (UniProt P61823 27-150); assay: ELISA
T9 sequence (looked up): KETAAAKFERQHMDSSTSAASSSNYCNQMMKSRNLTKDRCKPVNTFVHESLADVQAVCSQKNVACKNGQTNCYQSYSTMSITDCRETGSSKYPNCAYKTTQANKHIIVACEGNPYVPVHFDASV

[26] = molecular target: recombinant Sf21-expressed human IL-5 (human, UniProt P05113 20-134); assay: ELISA
[27] = molecular target: recombinant human TNF-alpha (human, UniProt P01375 77-233); assay: ELISA
[28] = molecular target: recombinant E. coli-expressed human IL-18 (human, UniProt Q14116 37-193); assay: ELISA
HEL (Hen Egg Lysozyme) = molecular target: T10, HEL (Hen Egg Lysozyme) (hen, UniProt P00698 19-147); assay: ELISA
T10 construct: also called hen egg white lysozyme
T10 sequence (P00698 19-147): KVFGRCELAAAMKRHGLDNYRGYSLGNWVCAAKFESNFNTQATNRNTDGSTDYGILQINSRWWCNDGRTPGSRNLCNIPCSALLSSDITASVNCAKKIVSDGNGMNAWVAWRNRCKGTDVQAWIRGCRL

- IC50 [1]: 36.2 nM
- Kd [2]: 0.438 nM
- binding result [3]: binds
- Kd [4]: 0.044 nM
- koff [4]: 2.24e-05 s⁻¹
- kon [4]: 507000 M⁻¹ s⁻¹
- Kd [5]: 0.44 nM
- binding result [6]: no binding
- binding result (recombinant human VEGF): no binding
B1: 586H-210 GS removed (bispecific antibody, human IgG1, kappa)
heavy: not shown
light: DIVMTQSPLSLPVTPGEPASISCRSSQNIVHINGNTYLEWYLQKPGQSPRLLIYKISDRFSGVPDRFSGSGSGTDFTLKISRVEADDVGIYYCFQGSHVPWTFGQGTKLEIKRTVAAPSVFIFPPSDEQLKSGTASVVCLLNNFYPREAKVQWKVDNALQSGNSQESVTEQDSKDSTYSLSSTLTLSKADYEKHKVYACEVTHQGLSSPVTKSFNRGEC
notes: also called BPC1601

- Kd [7]: 0.0137 nM
- Kd [8]: 0.02 nM
- IC50 [1]: 3.45 nM
- Kd [9]: 0.03 nM
- koff [9]: 0.00016 s⁻¹
- kon [9]: 5.3e+06 M⁻¹ s⁻¹
- Kd [10]: 0.011 nM
- Mean IC50 (whole blood phospho-STAT6) [11]: 2.44 nM
- Kd [12]: 0.037 nM
- Kd [13]: 0.011 nM
- Kd [14]: 0.06 nM
- koff [14]: 0.000123 s⁻¹
- kon [14]: 2.04e+06 M⁻¹ s⁻¹
- Kd [15]: 0.013 nM
- Kd [16]: 0.03 nM
- Kd [17]: 0.0137 nM
- Kd [18]: 0.06 nM
- koff [18]: 0.000123 s⁻¹
- kon [18]: 2.04e+06 M⁻¹ s⁻¹
- Kd [3]: 0.046 nM
- koff [3]: 0.000108 s⁻¹
- kon [3]: 2.34e+06 M⁻¹ s⁻¹
- binding result [4]: no binding
- binding result [19]: no binding
- Kd [20]: 0.037 nM
- Kd [21]: 0.00572 nM
- koff [21]: 2.43e-05 s⁻¹
- kon [21]: 4.25e+06 M⁻¹ s⁻¹
- Stoichiometry [22]: 1.8
- Mean ND50 (TF-1) [23]: 1.36 nM
- Mean ND50 (TF-1) [24]: 2.62 nM
- binding result [25]: no binding
- binding result (recombinant human IL-12): no binding
- binding result (recombinant human VEGF): no binding
- binding result (RNAse A): no binding (tested: 2 ug/mL)
- binding result [26]: no binding
- binding result [27]: no binding (tested: 1 ug/ml)
- binding result [28]: no binding
- binding result (HEL (Hen Egg Lysozyme)): no binding
B2: Pascolizumab (Anti-human IL-4 monoclonal antibody) (antibody, human IgG1, kappa, V domains shown)
VH: QVTLRESGPALVKPTQTLTLTCTFSGFSLSTSGMGVSWIRQPPGKGLEWLAHIYWDDDKRYNPSLKSRLTISKDTSRNQVVLTMTNMDPVDTATYYCARRETVFYWYFDVWGRGTLVTVSS
VL: DIVLTQSPSSLSASVGDRVTITCKASQSVDYDGDSYMNWYQQKPGKAPKLLIYAASNLESGIPSRFSGSGSGTDFTFTISSLQPEDIATYYCQQSNEDPPTFGQGTKVEIKR
notes: also called anti-human IL4 mAb; IL-4 mAb
